Measurements published in US20140058068A1 (UNIVERSITY OF MIAMI, published 2014).
Square brackets hold non-standard residues; d marks the D form. Ends that are not written are not given here. * marks the point of attachment. Desaminotyrosyl = O=C(CCc1ccc(O)cc1)*; NMeY = CN[C@@H](Cc1ccc(O)cc1)C(=O)O; Agmatine = N=C(N)NCCCCN*; NMeA = CN[C@@H](C)C(=O)O; Nle = CCCC[C@H](N)C(=O)O; Orn = NCCC[C@H](N)C(=O)O; Abu = CC[C@H](N)C(=O)O; Aoc = NCCCCCCCC(=O)O; Ava = NCCCCC(=O)O

T1: GHRH receptor of human pituitary membrane homogenates (human, UniProt Q02643 23-423)
T1 construct: whole, on cells; Native receptor in pituitary membrane homogenates, not intact cells; also called hGH-RH receptor
T1 sequence (looked up): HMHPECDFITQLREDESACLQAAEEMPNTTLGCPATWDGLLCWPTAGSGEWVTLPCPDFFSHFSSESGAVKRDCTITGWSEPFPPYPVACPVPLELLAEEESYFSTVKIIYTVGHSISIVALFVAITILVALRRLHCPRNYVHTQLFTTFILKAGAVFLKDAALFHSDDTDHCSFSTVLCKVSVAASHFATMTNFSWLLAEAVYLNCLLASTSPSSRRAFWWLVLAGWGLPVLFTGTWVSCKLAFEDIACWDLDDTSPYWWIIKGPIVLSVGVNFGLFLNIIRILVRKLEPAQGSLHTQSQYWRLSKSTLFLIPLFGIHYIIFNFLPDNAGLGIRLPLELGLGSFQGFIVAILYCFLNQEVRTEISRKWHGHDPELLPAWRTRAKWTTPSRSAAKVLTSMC

B1: [Dat^1, Gln^8, Orn^12, Abu^15, Orn^21, Nle^27, Asp^28, Apa^30]hGH-RH(1-30)NH2 (peptide)
peptide: [Desaminotyrosyl]ADAIFTQSYR[Orn]VL[Abu]QLSAR[Orn]LLQDI[Nle]DR[Ava]-NH2
SMILES: CCCC[C@H](NC(=O)[C@@H](NC(=O)[C@H](CC(=O)O)NC(=O)[C@H](CCC(N)=O)NC(=O)[C@H](CC(C)C)NC(=O)[C@H](CC(C)C)NC(=O)[C@H](CCCN)NC(=O)[C@H](CCCNC(=N)N)NC(=O)[C@H](C)NC(=O)[C@H](CO)NC(=O)[C@H](CC(C)C)NC(=O)[C@H](CCC(N)=O)NC(=O)[C@H](CC)NC(=O)[C@H](CC(C)C)NC(=O)[C@@H](NC(=O)[C@H](CCCN)NC(=O)[C@H](CCCNC(=N)N)NC(=O)[C@H](Cc1ccc(O)cc1)NC(=O)[C@H](CO)NC(=O)[C@H](CCC(N)=O)NC(=O)[C@@H](NC(=O)[C@H](Cc1ccccc1)NC(=O)[C@@H](NC(=O)[C@H](C)NC(=O)[C@H](CC(=O)O)NC(=O)[C@H](C)NC(=O)CCc1ccc(O)cc1)[C@@H](C)CC)[C@@H](C)O)C(C)C)[C@@H](C)CC)C(=O)N[C@@H](CC(=O)O)C(=O)N[C@@H](CCCNC(=N)N)C(=O)NCCCCC(N)=O
notes: also called Peptide 22327
B2: [N-Me-Tyr^1, D-Ala^2, Orn^12, Abu^15, Orn^21, Nle^27, Asp^28, Amc^30]hGH-RH(1-30)NH2 (peptide)
chain: [NMeY][dA]DAIFTNSYR[Orn]VL[Abu]QLSAR[Orn]LLQDI[Nle]DR[Aoc]-NH2
modifications: N-terminus assumed
SMILES: CCCC[C@H](NC(=O)[C@@H](NC(=O)[C@H](CC(=O)O)NC(=O)[C@H](CCC(N)=O)NC(=O)[C@H](CC(C)C)NC(=O)[C@H](CC(C)C)NC(=O)[C@H](CCCN)NC(=O)[C@H](CCCNC(=N)N)NC(=O)[C@H](C)NC(=O)[C@H](CO)NC(=O)[C@H](CC(C)C)NC(=O)[C@H](CCC(N)=O)NC(=O)[C@H](CC)NC(=O)[C@H](CC(C)C)NC(=O)[C@@H](NC(=O)[C@H](CCCN)NC(=O)[C@H](CCCNC(=N)N)NC(=O)[C@H](Cc1ccc(O)cc1)NC(=O)[C@H](CO)NC(=O)[C@H](CC(N)=O)NC(=O)[C@@H](NC(=O)[C@H](Cc1ccccc1)NC(=O)[C@@H](NC(=O)[C@H](C)NC(=O)[C@H](CC(=O)O)NC(=O)[C@@H](C)NC(=O)[C@H](Cc1ccc(O)cc1)NC)[C@@H](C)CC)[C@@H](C)O)C(C)C)[C@@H](C)CC)C(=O)N[C@@H](CC(=O)O)C(=O)N[C@@H](CCCNC(=N)N)C(=O)NCCCCCCCC(N)=O
B3: [Dat^1, D-Ala^2, N-Me-Ala^8, Orn^12, Abu^15, Orn^21, Nle^27, Asp^28, Agm^29]hGH-RH(1-29) (peptide)
chain: [Desaminotyrosyl][dA]DAIFT[NMeA]SYR[Orn]VL[Abu]QLSAR[Orn]LLQDI[Nle]D[Agmatine]
SMILES: CCCC[C@H](NC(=O)[C@@H](NC(=O)[C@H](CC(=O)O)NC(=O)[C@H](CCC(N)=O)NC(=O)[C@H](CC(C)C)NC(=O)[C@H](CC(C)C)NC(=O)[C@H](CCCN)NC(=O)[C@H](CCCNC(=N)N)NC(=O)[C@H](C)NC(=O)[C@H](CO)NC(=O)[C@H](CC(C)C)NC(=O)[C@H](CCC(N)=O)NC(=O)[C@H](CC)NC(=O)[C@H](CC(C)C)NC(=O)[C@@H](NC(=O)[C@H](CCCN)NC(=O)[C@H](CCCNC(=N)N)NC(=O)[C@H](Cc1ccc(O)cc1)NC(=O)[C@H](CO)NC(=O)[C@H](C)N(C)C(=O)[C@@H](NC(=O)[C@H](Cc1ccccc1)NC(=O)[C@@H](NC(=O)[C@H](C)NC(=O)[C@H](CC(=O)O)NC(=O)[C@@H](C)NC(=O)CCc1ccc(O)cc1)[C@@H](C)CC)[C@@H](C)O)C(C)C)[C@@H](C)CC)C(=O)N[C@@H](CC(=O)O)C(=O)NCCCCNC(=N)N

target: T1, GHRH receptor of human pituitary …; test: radioligand competition, 125I-JV-1-42 (~0.2 nM) as competitor, human pituitary membrane homogenates
Description: Normal human pituitaries were purchased from the National Hormone and Peptide Program (A. F. Parlow, Los Angeles, County Harbor-UCLA Medical Center, Torrance, Calif.).

Binder | IC50 [nM] | Relative affinity (Binding potency) vs JI-38
B1 | 1.99 | 2.18 fold, JI-38 = 1
[NMeY]ADAIFTQSYR[Orn]VL[Abu]QLSAR[Orn]LLQDI[Nle]DR[Ava]-NH2 (also called Peptide 22325) [[N-Me-Tyr^1, Gln^8, Orn^12, Abu^15, Orn^21, Nle^27, Asp^28, Apa^30]hGH-RH(1-30)NH2] | 3.8 | 1.14 fold, JI-38 = 1
B2 | 1.87 | 2.32 fold, JI-38 = 1
B3 | 0.86 | 5.06 fold, JI-38 = 1
